The data set is described as follows: label from the status in PepcDB records.
For “MIDIKVDPRLKSQRFRQEREADWRRLERLIGKVEKGSIADLSDEDLLAAPVLYRSALSALSVARATSLDRALIAYLETLCARAYFFVYGSRETLWGQLKGFFAGDWPAAVRGLWRETLVSAALMALGVMIAAWLVGHDPDWFYAFVPRELAGGRDPAATTEALAATLGGKDASGLTVFATFLFTHNAQVALLAFALGFALCVPTAGLVLYNGAMLGAFLALFASRGLGIELGGWLLIHGVTELFAVILAGAAGLRIGWAAAFPGERRRLDALAEAGRHAATVMGGVVVMLFLAGLLEGFGRQLITDTAARYGVAAATALMWGLYFYGPRRHG”, the protein production entry is on record as “failed”.

As to “MIDLDFRKLTIEECLKLSEEEREKLPQLSLETIKRLDPHVKAFISVRENVSVEKKGKFWGIPVAIKDNILTLGMRTTCASRILENYESVFDATVVKKMKEAGFVVVGKANLDEFAMGSSTERSAFFPTRNPWDLERVPGGSSGGSAAAVSAGMVVAALGSDTGGSVRQPASLCGVVGYKPTYGLVSRYGLVAFASSLDQIGPITKTVRDAAILMEIISGRDENDATTVNRKVDFLSEIEEGVSGMKFAVPEEIYEHDIEEGVSERFEEALKLLERLGAKVERVKIPHIKYSVATYYVIAPAEASSNLARFDGVKYGLRIKEKGLREMYMKTRNVGFGEEVRRRIMIGTFTLSAAYYEAYFNKAMKVRRKISDELNEVLSQYDAILTPTSPVTAFKIGEIKDPLTYYLMDIFTIPANLAGLPAISVPFGFSNNLPVGVQVIGRRFADGKVFRIARAIEKNSPYNENGMFPLPEVKA”, the protein production result is “not failed”.

On to “MIDPREPIVTPVPVEELRPTQITVGMREVALKRQMIREQDAKKKTGAFLGKHMVPVVLGPKNRNYVTDHHHLARALLEEGVKDVLVTVISDLSALDKDTFLFVLDNRGWMHPFDESGRRRDYSAIPKTIGELIDDPYRSMAGELRRMGGFAKDTTPFSEFIWADFLRRRIDRNAVAKNFDKAMKEALSLAKGKDADYLPGWCGPTSDLEHHHHHH”, for which the protein production result is “not failed”.

As to “MIDVKSIILIVLDGLGDRPGEILGYRTPLQAAYHPNMNRMASLGMTGLMHPISPGIRSGSDTSHMSLLGYDPRVYYQGRGPFEALGLHMDMKPGDLAFRANFATNRDGKIIDRRAGRINAGNDQLASAISIDIGNYKFRVKSGVEHRAALVVSGPNLSDKISDSDPHSEGKPPEPIRPLDPSADSTAKIMNEYLKRIREILRDHPVNVEREKNGQIPGNELLIRSAGKVPDIPSFQEKNGITGACVVGSPWLKGLCRLLGMAVIDVPGAAGTINSNYTGKIKTAIDASKRYDFVLVNIKATDVAGHDGDYELKRRVIEDIDIAMEPLLGQSDRIVVAITGDHSTPCSVKDHSGDPVPIVFYTDGIYSDDVKLFDEVSAMKGALRITTQDVLNILMEMAGRAEKFGS”, the protein production entry is given as “not failed”.

For “MIEAYKDYWKRYIDFKGKSNRLEFWTPVLVHIISIFIIALIGAFSFIVGIFIVAAVLSALIGLFGLANIVPMAAVTLRRFYDAGRKRTTAIILIILSVVVNIVFDIIQVDSIAVFLNIVSIICTIILVIETLLPSKNVEDAQLKWL”, the protein production entry is given as “failed”.

With “MIEDKFMRVLLMFDVPTKSKKEQKLASKFRNNLIKLGYFMLQFSVYMRICKGLSSAKSSIENVKKILPPYGNVRALIITEKQFDKMELLLGGIVFNEKVNNETNLTLFDIDSHGEFKYKNSNNEEIQINKKQEKYHQQNLFEFLEHHHHHH”, the protein production entry was “failed”.

In the case of “MIEDTLHAIAQQDYPAESYEVLLINDGSKDNTLEIAENLAKIYPCIKIVNVPKGMGGKGKSRTLNNGLPHAKGELIVVYDADSTPEPDCVRLLAQTLLADKKLVAVNGKVRTRNWQDSILTRFIAIEFIFFQWIFQGGRWQRFELSTLMGTNYVIWRDALETLGGFDEKSLVDDTEMSFRIFIGQKRIKWVPYAIGWQQDPPSLSVFVKQRSRWTQGNFYVTRKYLPVALRTPFPIGIEILNNIMCYILFVPALFWSHITLTLGLLDIAGISVPGPFTLLWGLSFCLYVAQMWFTLSLEKVKPELYFYSVLSYVSYSQIFLFIVFKAAFDMLKNKIQGNSLQWYKTERSKEKK”, the protein production entry was “failed”.

Consider “MIEEQGRVVATEPGAVWVETVRRSTCSSCSANAGCGQGLMQRLGVGAGRARVRALSDLSLRVGDAVVLGIHEDLLLRASVLFYLFPLLGFFVAALLATRAGLVEPLIIVSGLAGLLAAWLLVRRHARRHADDPASQPVVLRALISGPSDSA”, for which the protein production entry is listed as “failed”.

As for “MIEKVYCQEVKPELDGKKVRLAGWVYTNMRVGKKIFLWIRDSTGIVQAVVAKNVVGEETFEKAKKLGRESSVIVEGIVKADERAPGGAEVHVEKLEVIQAVSEFPIPENPEQASPELLLDYRHLHIRTPKASAIMKVKETLIMAAREWLLKDGWHEVFPPILVTGAVEGGATLFKLKYFDKYAYLSQSAQLYLEAAIFGLEKVWSLTPSFRAEKSRTRRHLTEFWHLELEAAWMDLWDIMKVEEELVSYMVQRTLELRKKEIEMFRDDLTTLKNTEPPFPRISYDEAIDILQSKGVNVEWGDDLGADEERVLTEEFDRPFFVYGYPKHIKAFYMKEDPNDPRKVLASDMLAPEGYGEIIGGSQREDDYDKLLNRILEEGMDPKDYEWYLDLRRYGSVPHSGFGLGVERLVAWVLKLDHIRWAALFPRTPARLYP”, the protein production result is “not failed”.

For “MIENTIYKEFIDKISELSDGIYPIITDLDNDLSYVPDKTADFFGFEAGEHTCFFEQLSSCVNDVDLPEYKREIRYRLNGEKPDDIFYVRMGKHTKEYMMGFYSDIFTGDDGHRYHVLVLRNENTLPDIDPYTYLYGQSKFERDINGYIMENRSVAIIEVEIGHIDEFNILYGSNFNTAIQRELALKFIYMMDGSTATYYMNNCKFVFVVKEADRALAESFYQKIADTIKSMYFFKCFKFEFDIYAACLILKDYDGDTSTVISKVEYTLDRAKELHSSDLLFFNDMVRFNGSSHIDIMKIIHQSVINSCDGFFVEFQPIVKACNGEIMGAEALVRWKKEPFGTVPPGLFIDWLEDTPAMYELGNYIMRTAISAASEFAKIKPGFFINVNASSEQLEKENFVKDTLAILKEYDFPPSQLWIEITERCRDLPISMIKKTVTAFREAGIHITMDDYGTGSSSSQMMLELPVEGIKIDMFFVKDILEEKKKQALVIGMINFANAADLKICIEGIENDNLESYLRQFDVTWFQGYHYSRSICQDELMKLLIKP”, the protein production result is listed as “failed”.

In the case of “MIESRRFVSDVMITFIASLVNIIISFPISVVIGRYLGVEDLGAYRLVFSIYGLSLLFANAGIPAAVIKQISEIKEDPKSTVKVISSSFFTSSLLGIFFLIFYLLFAETLSNIFGTPELADLIRIISLSFPFSVTGSTMLATLNGFRDMKKHATAILIQSVLMLFFTILSITFGYGVNGAVGASVISSIGYCVYLLRYLGKYIKIINFSDAVHYSKSMITFGLQTVVANAVNLINFQADTIMVGYFLTKTDVGFYSVAVLLAKLLWLIPDSIQKITYPLISEHYNNSGTEYINRAIETIMKYTMCISIVIGSGMIFYGEGIITSIYGASFIESVNPYYILIVGTMIFSIVKCVNSLFASIGRVDLFAKIPTYSAAVNILLNLVLIPIYHINGAAIATSTSLLIYVLVMIYYMKKLVNIHINVIWYSKAIFLFAMLIIINYILSLFTPFNSSGILTVSLGCLLLWIYILEPSDRVFFLSLVTKLKSLSLN”, the protein production result is recorded as “failed”.

On to “MIETTKGGSGSYPIKTIVVLVQENRSFDHTLGWFKELNREIDGVTKSDPKSNTVSSSDTNSLRVVFGDQSQYVNPDPGHSIQDIYEQVFGKPWDSGKPDPNPGHPNMSGFAQNAERNKKGMSSAVMNGFKPNALPVYKELVQNFAICDRWFASVPASTQPNRLYVHSATSHGATSNDKKLLLEGFPQKTIFESLDEAGFSFGIYYQFPPSTLFYRNLRKLKYLTHFHQYGIQFKKDCKEGKLPNYVVVEQRWFDLLSTPANDDHPSHDVSEGQKLVKEVYEALRSSPQWNEILFIITYDEHGGFYDHVPTPVDGVPNPDGILGPPPYNFEFNRLGVRVPTFFISPWIEPGTVIHGPNGPYPRSQYEHSSIPATVKTIFKLKDFLSKRDSWAGTFESVITRDSPRQDCPETLSTPIKLRGTMAKENAQLSEFQEDLVIMAAGLKGDYKNEELIHKLCKETCVADASKYVTNAFEKFLEESRKARDRGCDENDIVYCVDDDDDHVVIPPQSHSEASNAAAQPKTQTSFFNKLFSCFIRHD”, for which the protein production entry is “failed”.

On to “MIFAFVFDRDYYSLGLVLLALFSAQSPYGGLSLEIYLKSCRIQQNYTRLNTMKLRLPHAPYVANKIALDLVSSGYIELGSNMEKISQIAKHFLEENIKKEAALEEKVRLLLEANLEEIEFLRVDERQFFWMAKKKLAEEEGFILAKDDRYSHLSHQILDELIKEEVIDFGVSDTIIKNVIFKAIDGYVKIYESIEDVVIEKIENYKRKIIAGTEEYDMVFEKLYEEELKKRGFL”, for which the protein production entry was “failed”.

As for “MIFKKEPKRYTVEDTIPYLRLLKSGICQLDEKHFSKSIAFQDINYQLALDEDRDLIFNQFANFLNSFDPSISIEFSYVNQLGRNEEMKSAIQIPDKKDGFDDIRFEFREMLKSQIVKGNNGLKKSKYVTFTVEADNLEQATSKLERLEIDILSNLKSMGVRAESLNGEERLKILHDVLNPNKTFEFSYKDLKKRESTKTYIVPDEFNFTPSRYFKFGKFIGATSHFQILASELSDRMLSEFLDIDDNINISFHIRAIDQSEAIKMVKRKNTDIDKMKIEENKKAVRSGYDMDILPSDLITYGEDVKSLLKDLQTRDERMFVVSIVFMNFARTVQKLDNTIAQISSIANKHNCKLKRLDHSQEQGLVSMLPLGVNKIEIDRGLTSSSTAVFMPFTTEELFINSSNSLYYGLNALSHNLIMADRKKLKNPNGLILGTPGSGKSFSAKREMANAILVTDDDVIICDPEGEYGNLVRQFKGEVIKVSSKSKDYLNPLDINMNYGDGDAPLKDKANFIMSMLELVVGGSGLTAEEKSVIDRCLPKIYEKYFEHPTPDNMPILQDLYDMLKGQEEKVGKKLATEMEIYVSGSLNVFNHRSNVDLNKKLLCFDIKELGSQLKKIGMLVIQDQVWNKVSQNRGNKATRYYIDEFHLLLKDEQTASYSVEIWKRFRKWGGIPTGITQNVKDLLMSKEIENIFDNTDFVLMLNQASGDREILARKLKISLPQLRYVTNSNEGEGLLFFGNTIVPFLDKFPKDTILYQKMTTKPEEVRLEHHHHHH”, the protein production entry is listed as “not failed”.

In the case of “MIFLSTVLILCCTWYFLKFLAHFSRKIHDEVRKLSVYTHFLSKWLQSAPATFTYTAIFCAFTLVQRTAPQHLINILTNHSSTSIARVSDKPISTFFDSAFWVADNGAGLLIYVVLFWTVIAWAERKYGSPRMIVITLSGHILASLTTIFLELWAINSGRAPSSLAMATDVGVSYILVAGCAAAILIMRKRMFYIGLIILGLFILLPLFVEHSIWDMGHLFAAFFGFISARLLLKLSPVRTVSSPYELLLKCRSELSNK”, the protein production entry was “failed”.

“MIFMNMIFVDREKELQTLMQRLNSPTFELVIVYGRRRIGKTSLILRAISGRNDSVYYYATERNNLERFREVAQRKFPEVRYAREDWESLLHFLRDKVVIIDEFPYLIEEDKSILSTFQRIVDENRDSRTKLILLGSSISVMEDVLSYRSPLYGRRTASLKVGELKFRDLRHLGFSVEEAVKIYGFAGGVPMYLTRVTPPFLDWVNRELKRVDSFLRDEVDFLLRYEFREIGTYKEILRAISMGKNTLAEIRDYVKVGGEISSYIKKLERIELVTREVPVTESVRSKMGRYVIRDNFTNFWFRFVYPNLSLIEEGTYEITEGEYANYLGHVFERICREYVRDRYRVKKVGRQWWKDVEIDVMGLGNVKVAGECKWSEDVNPHSVLANLERKVERLGHTVDRYVVFARSFSTKEKMEKAELVDINDLNSWFMS”: the protein production entry was “failed”.

On to “MIFMQTSSYHSVTSVIFDKNTQNHTSIAIWLLICCALVFAMVVVGGVTRLTGSGLSIVEWKPIVGTIPPISQGDWEILLEKYRQIPQYEQINKGMTLDEFKGIFWWEYFHRLLGRLIGLVYFVPFVYFMVRKRVDRVLGTKLLGIFVLGGLQGLMGWYMVMSGLADNVYVSQYRLTAHLGLAFIIYAAMFWVATGLLSPVNTHSADPASVRKLGRFARILTGLIFFMVLSGGLVAGIHAGKAYNTFPLMDGFFIPPALFVLEPWYRNFFDNITTVQFDHRMIAWLLMFTIPLFWFKARQLSLSWSGRLACHLLLIMLCTQVALGITTLLLSVPLTFAAAHQAGAVLLFTAALWVCRKLS”, for which the protein production entry is “failed”.
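Further: failed if final PepcDB status was selected cloned or expressed and not failed if soluble or beyond.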
